The values below come from US9657081B2, “Inhibiting peptides derived from triggering receptor expressed on myeloid cells-1 (TREM-1) TREM-like transcript 1 (TLT-1) for treatment of cardiovascular diseases” (INSERM (Institut National de la Sante et de la Recherche …, priority 2013, dated 2017).

Experiment [1] has as its system TREM-1. The experiment is described as follows: Rat model of sepsis-induced cardiac dysfunction, intrinsic cardiac function by Millar catheter. Format: in vivo. Also on record: dpdtmax/Ved / PRSW: unit not given beside the values; FEVG / ESPVR: unit not given here. The text has this:
TREM-1- and TLT-1-derived peptides administration during rat model of sepsis-induced cardiac dysfunction is associated with an increase of intrinsic cardiac function measured by Millar catheter (FEVG, ESPVR, dpdtmax/Ved, PRSW).
Rats were anaesthetized with isoflurane and a 2 F high-fidelity micro-manometer catheter (SPR-407, Millar Institute, Houston, Tex., USA) was inserted into the LV via the right carotid artery. The Millar catheter was connected to a Harvard Data Acquisition System interfaced with a PC with the AcqKnowledge III software (ACQ 3.2).

The target in experiment [2] is T1, TREM-1 (Sus scrofa, UniProt Q6TYI6).
T1 construct: endogenous in cells; host or cells: living mini-pigs (in vivo)
T1 sequence (Q6TYI6 21-238): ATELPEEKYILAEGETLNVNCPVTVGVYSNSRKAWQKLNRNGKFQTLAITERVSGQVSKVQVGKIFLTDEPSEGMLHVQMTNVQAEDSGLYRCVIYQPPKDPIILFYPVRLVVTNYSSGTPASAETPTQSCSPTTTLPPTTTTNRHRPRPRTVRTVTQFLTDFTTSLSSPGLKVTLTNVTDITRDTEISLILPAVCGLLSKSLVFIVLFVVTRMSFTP
Description: Mini-pig model of sepsis (peritonitis): sepsis-induced hypotension and cardiac dysfunction. Format: in vivo, mini-pig (Sus scrofa domestica). The procedure:
Adult male mini-pigs (Sus scrofa domestica, Vietnamese pot-belied mini-pigs, 30-40 kg) were purchased from Elevage Ferry (Vosges, France). Before surgery, animals were fasted overnight with free access to water. Preanesthesia was performed through intramuscular administration of ketamine (10 mg/kg) and midazolam (0.1 mg/kg). Anesthesia was induced and maintained with intravenous pentobarbital (initial bolus: 10 mg/kg, and continuous administration 6-8 mg/kg/h), intermittent sufentanyl (10 μg), and pancuronium (4 mg) if necessary. Animals were mechanically ventilated (tidal volume 8 ml/kg, PEEP 5 cm H2O, FiO2 0.21, respiratory rate 14-16 breaths/min adjusted to maintain normocapnia). Left jugular vein was exposed and a triple-lumen line was inserted. Right jugular vein was also catheterized and a Swan-Ganz catheter was positioned allowing the continuous recording of cardiac output, SvO2, and right atria and pulmonary arterial pressures. A right carotid arterial catheter was inserted for continuous measurement of arterial pressure. A catheter in the bladder allowed urine collection.
After instrumentation, a midline laparotomy was performed to collect feces from the left colon: 1.5 g/kg were suspended in 200 mL of 0.9% NaCl and incubated at 38° C. for 2 hours. After surgery, a tube was left in place for the peritonitis induction and ascites drainage.
After surgery, animals were allowed to recover for 2 hours before baseline measurements (defined as ‘H0’). Normal saline was continuously administered (10 mL/kg/h) throughout the study. Body temperature was kept constant (±1° C.) using heating pads or cooling.
After baseline data collection (H0), peritonitis was induced by administration of autologous feces through the abdominal tube which was subsequently maintained clamped. After 2 hours (H2), animals were randomized to receive LR12 (LR12 group, n=6) or the vehicle (normal saline) alone (Control group, n=5). A bolus of 5 mg/kg (in 60 mL) was intravenously delivered over 30 minutes, then a 1 mg/kg/h (15 mL/h) infusion was started and lasted throughout the study period.
Animal care was then provided by an experienced intensive care physician with strict adhesion to the following guidelines throughout the study period:
i) Hemodynamic targets: the main objective was to maintain mean arterial pressure (MAP) above 85 mmHg. To achieve this goal and in addition to the maintenance 0.9% NaCl administration (7 mL/kg/h), hydroxyethyl starch (up to 20 mL/kg for the entire study period) (HES 130/0.4, Voluven®, Fresenius) was allowed provided that central venous pressure (CVP) and pulmonary artery occlusion pressure (PAOP) was <18 mmHg. When hydroxyethyl starch maximal volume was reached, a continuous infusion of norepinephrine was started up to 10 μg/kg/min.
Hemodynamic parameters were continuously monitored including MAP, mean pulmonary artery pressure (MPAP), right atrial pressure (RAP), cardiac output (CO), cardiac index (CI), and SvO2. Systemic oxygen delivery (DO2) and systemic oxygen uptake (VO2) were calculated by the Swan-Ganz monitor. Cardiac Power Index (W/m^2) was calculated as MAP×CI/451 (24).

In the experiment with TREM-1 [1], “LQEEDAGEYGCM (listed as Homo sapiens) [TLT1-LR12]” returned an ESPVR of 2.7 ± 0.1, an FEVG of 77.2 ± 9.2, a PRSW of 143 ± 7 and a dpdtmax/Ved of 158 ± 18. Further, the “animals in which norepinephrine was started by H12 to maintain MAP >85 mmHg” value in the experiment with TREM-1 [2] (mini-pig peritonitis) is on record as 1/6. The sequence also registered a volume rescucitation in the experiment with TREM-1 [2] (mini-pig peritonitis, 5 mg/kg bolus then 1 mg/kg/h i.v.) of 6500 ± 800 mL. For the same sequence, the progressive lactic acidosis result in the experiment with TREM-1 [2] (p=0.0005) is listed as “largely attenuated”. Also, in the experiment with TREM-1 [2] (versus controls), the “cardiac failure (cardiac index, cardiac power index, SvO2, DO2)” value is on record as “significant beneficial effects in attenuating cardiac failure” and the “norepinephrine infusion rate needed to maintain blood pressure” value is “significantly lower”.
